Measurements as given in the supplement of paper PMC12764529.
± gives the half width of the 95% confidence interval.

Columns and labels:
[1] = folding stability dG unfold from trypsin proteolysis; higher = more stable
Procedure, shortened: (§1)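 Digests were run with trypsin and chymotrypsin at 11 concentrations in threefold dilutions, plus a no-protease condition, on designed mini-proteins in a PA-tagged cDNA display construct. The mini-proteins were under 80 residues, had no cysteine, and were kept only when AlphaFold2 dimer inter-PAE was above 15. After sequencing, Bayesian fitting of the counts gave K50, from which unfolding free energy was derived against a sequence-predicted unfolded-state K50 and a shared folded-state K50, per protease or combined.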

[2] = folding stability dG unfold (combined trypsin and chymotrypsin); higher = more stable
Procedure, shortened: as §1

[3] = folding stability dG unfold from chymotrypsin proteolysis; higher = more stable
Procedure, shortened: as §1

Sequence	folding stability dG unfold [1] [kcal/mol]	folding stability dG unfold [2] [kcal/mol]	folding stability dG unfold [3] [kcal/mol]
SAGGSAGGSSMPTMTKVGDTWLYYDPSTDIKRPATVTVDDGKITIDGDSGTTVYDGDLVIETSSAGGSAGGS [r12_683_JUSTAS]	0.389 ± 0.057	0.149 ± 0.1	-0.313 ± 0.13
SAGGSAGGSSMTFEVVEIERPPGDEIRVLVKREDGREFAEITLPPGASPEEIERAVREAVEAESAGGSAGGS [r12_798_JUSTAS]	0.707 ± 0.07	1.26 ± 0.28	1.55 ± 0.057
SAGGSAGGSSMTFISTSTSPGNGYTYNIYSQPGKVVVTTTAPDGTVSVTTVEVSPDTSVTVTAASAGGSAGG [r6_380_JUSTAS]	1.16 ± 0.045	1.3 ± 0.085	1.36 ± 0.12
SAGGSAGGSSPEENLETQVETELLEEFKPGDKPRKLVKTTVTYPDGTTKEEIVTIDENGNILLSAGGSAGGS [r12_755_JUSTAS]	-0.206 ± 0.049	-0.0945 ± 0.1	-0.117 ± 0.065
SAGGSAGGSSPITIPIPLSELSEETLKKIAEENPEGETPIKIIKPDGTPVTIVVKPGGEIIGASAGGSAGGS [r12_1054_JUSTAS]	0.728 ± 0.046	1.01 ± 0.075	1.09 ± 0.068
SAGGSAGGSSPPVTVIPLKIPVDPDTTPEEIKEELAAKVPPNSSVKVDTKPGSGTVNVTVTISSAGGSAGGS [r12_12_JUSTAS]	1.12 ± 0.061	0.753 ± 0.14	-0.14 ± 0.11
SAGGSAGGSSPVRMVATIPLPDGTTITVEAEIVRLPDGTILIKTPSGEIIEVPPDVPVEFFPESAGGSAGGS [r20_227_JUSTAS]	1.78 ± 0.057	2.23 ± 0.054	2.45 ± 0.052
SAGGSAGGSSSYSVPDSSSVTLETTVTITFPSSSVGGSPASSGPVAFTVPVKVTVSVTNPGVASAGGSAGGS [r12_668_JUSTAS]	1.18 ± 0.029	1.02 ± 0.14	0.532 ± 0.18
SAGGSAGGSSTATFTLSRLPDGTYRLTLYDPSTNKVTTEEVPASRPDEYSAVTVSSDGTVTTASAGGSAGGS [r20_11_JUSTAS]	0.771 ± 0.076	0.662 ± 0.095	0.338 ± 0.11
SAGGSAGGSSTTPVTITVPESILDEIKKKAEELGIKVEVEIKESPENKKYATVTIEIPENVELSAGGSAGGS [r12_653_JUSTAS]	0.935 ± 0.081	0.509 ± 0.14	-0.248 ± 0.25
SAGGSAGGSSVIEVTFSDGSKALFFPGSQKVVVYNPSTKKKIVIPPGVSPETALKAIAEGKPISAGGSAGGS [r12_832_TrMRF]	0.91 ± 0.056	0.671 ± 0.13	0.185 ± 0.073
SAGGSAGGSSVLEVDPETGITVAVQDPSTGRYYVRNPEGEIREFDSPEEIREAFGRPVNFKTAPSAGGSAGG [r6_753_JUSTAS]	0.559 ± 0.018	0.753 ± 0.057	0.787 ± 0.082
SAGGSAGGSSYTVSEDPNSSSTTITDPVTGRTVLRSPSSWTVVDPETGEEKSFPAGTVVTLPESAGGSAGGS [r12_584_JUSTAS]	-0.146 ± 0.13	0.724 ± 0.042	1.06 ± 0.056
SAGGSAGGSTIDITLPDLDEEEIREYLKELFPDVEVTIEYDPSTNTYTLKVGGDEVVVTRLPPNSAGGSAGG [r6_609_JUSTAS]	3.25 ± 0.086	3.43 ± 0.057	3.43 ± 0.038
SAGGSAGGSTLKLEIVNEDGYKVEIEAELELVEKDGKLVLKLKVKIKVEPAKEVKEVKVELPESAGGSAGGS [r12_581_TrROS_Hall]	1.95 ± 0.16	3.45 ± 0.44	3.87 ± 0.2
SAGGSAGGSVEKLKKALEKLGIKVENVKIEVKTNKNGKKTVTIYVNGKKLSKEEIKKALKEIKSAGGSAGGS [r12_175_TrROS_Hall]	2.99 ± 0.23	4.24 ± 0.44	4.46 ± 0.33
SAGGSAGGSVESATTTITITASLTPEEVEEIIEELKKKGLNVKKVEIEREPETGSVTITVTVNPSAGGSAGG [r6_514_JUSTAS]	3.2 ± 0.1	3.14 ± 0.093	2.92 ± 0.075
